The values below are quoted from earlier work in PMC8602370.

For orientation: Kd means a measure of binding affinity in units of concentration.

The target in this data set is PARP1 (Homo sapiens) (UniProt P09874).
Chain of PARP1 (Homo sapiens) (P09874 2-1014): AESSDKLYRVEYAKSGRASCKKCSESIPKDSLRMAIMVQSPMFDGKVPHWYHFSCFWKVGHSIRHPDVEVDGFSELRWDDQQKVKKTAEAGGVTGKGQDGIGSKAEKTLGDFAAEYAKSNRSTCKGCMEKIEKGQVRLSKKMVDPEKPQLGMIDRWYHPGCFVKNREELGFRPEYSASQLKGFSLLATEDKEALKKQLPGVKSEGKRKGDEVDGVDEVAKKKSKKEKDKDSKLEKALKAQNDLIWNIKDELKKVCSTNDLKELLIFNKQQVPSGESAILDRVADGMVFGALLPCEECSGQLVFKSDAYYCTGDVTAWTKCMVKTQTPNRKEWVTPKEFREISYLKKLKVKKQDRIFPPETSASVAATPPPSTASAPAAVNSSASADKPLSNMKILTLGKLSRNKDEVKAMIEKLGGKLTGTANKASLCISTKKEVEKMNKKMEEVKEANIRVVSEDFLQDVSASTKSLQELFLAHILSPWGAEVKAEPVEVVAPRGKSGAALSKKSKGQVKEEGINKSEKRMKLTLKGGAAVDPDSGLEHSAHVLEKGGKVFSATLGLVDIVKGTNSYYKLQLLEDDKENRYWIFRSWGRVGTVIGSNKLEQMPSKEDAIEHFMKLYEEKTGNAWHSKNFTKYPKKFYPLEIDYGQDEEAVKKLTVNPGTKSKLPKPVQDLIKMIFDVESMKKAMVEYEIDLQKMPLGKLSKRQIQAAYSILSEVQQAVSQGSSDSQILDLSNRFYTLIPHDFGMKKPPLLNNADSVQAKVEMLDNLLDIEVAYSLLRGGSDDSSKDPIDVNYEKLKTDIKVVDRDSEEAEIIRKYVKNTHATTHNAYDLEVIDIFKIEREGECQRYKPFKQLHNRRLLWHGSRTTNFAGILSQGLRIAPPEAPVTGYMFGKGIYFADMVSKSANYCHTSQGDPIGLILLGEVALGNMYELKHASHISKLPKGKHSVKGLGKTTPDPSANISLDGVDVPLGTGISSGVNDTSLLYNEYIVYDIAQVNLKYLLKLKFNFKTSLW

Chain of HPF1 (Q9NWY4 whole entry): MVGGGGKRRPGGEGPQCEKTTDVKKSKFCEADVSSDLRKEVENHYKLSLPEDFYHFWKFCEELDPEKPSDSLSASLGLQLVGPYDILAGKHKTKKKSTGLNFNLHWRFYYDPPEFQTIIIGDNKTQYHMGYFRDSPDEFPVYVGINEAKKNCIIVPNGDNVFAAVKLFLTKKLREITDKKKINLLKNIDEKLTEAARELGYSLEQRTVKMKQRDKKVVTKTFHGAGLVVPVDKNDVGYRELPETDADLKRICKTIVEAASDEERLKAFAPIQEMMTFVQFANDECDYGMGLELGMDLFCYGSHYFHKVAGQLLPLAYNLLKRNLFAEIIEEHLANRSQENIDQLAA

Turning to HPF1 (from UniProt Q9NWY4), the Kd was 3.5 µM.
